Positions count from the first letter of the chain named.
T1: Human CD19 expressed on cell surfaces (Raji cells; CD19-K562 cells) (human, UniProt P15391 20-556)
T1 construct: whole, on cells; also called antigen CD19; human CD19 antigen
T1 sequence (looked up): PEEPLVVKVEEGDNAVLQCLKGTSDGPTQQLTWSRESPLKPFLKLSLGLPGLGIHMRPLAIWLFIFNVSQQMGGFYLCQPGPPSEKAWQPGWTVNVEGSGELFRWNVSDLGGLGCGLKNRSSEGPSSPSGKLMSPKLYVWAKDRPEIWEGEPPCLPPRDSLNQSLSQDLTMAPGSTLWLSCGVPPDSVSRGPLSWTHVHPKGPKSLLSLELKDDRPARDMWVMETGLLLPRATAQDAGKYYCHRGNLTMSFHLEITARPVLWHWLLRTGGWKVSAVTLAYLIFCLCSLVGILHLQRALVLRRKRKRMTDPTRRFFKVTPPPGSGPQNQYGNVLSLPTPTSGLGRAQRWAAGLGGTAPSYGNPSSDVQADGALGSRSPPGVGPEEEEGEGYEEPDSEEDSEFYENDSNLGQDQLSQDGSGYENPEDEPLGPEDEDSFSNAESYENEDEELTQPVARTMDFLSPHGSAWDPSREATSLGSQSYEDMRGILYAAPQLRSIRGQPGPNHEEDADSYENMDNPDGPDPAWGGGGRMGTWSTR

B1: hFMC63 (antibody, V domains shown)
VH: QVQLQESGPGLVKPSETLSLTCTVSGVSLPDYGWSWIRQPPGKGLEWIGRIWGSETTYYNPSLKSRVTISVDTSKNQFSLKLSSVTAADTAVYYCAKHYYYGGSYAMDYWGQGTLVTVSS
VL: DIQMTQTTSSLSASLGDRVTISCRASQDISKYLNWYQQKPDGTVKLLIYHTSRLHSGVPSRFSGSGSGTDYSLTISNLEQEDIATYFCQQGNTLPYTFGGGTKLEIK
notes: Humanized heavy chain hFMC63VH in pTSEG1n-S (human heavy constant)
B2: h1FMC63 (antibody, V domains shown)
VH: B1 VH with W34V, R50V, P61S, S62A
VL: B1 VL
notes: Humanized heavy chain h1FMC63VH in pTSEG1n-S (human heavy constant)
B3: h2FMC63 (antibody, V domains shown)
VH: EVQLVESGGGLVQPGGSLRLSCAASGVSLPDYGVSWVRQAPGKGLEWVSVIWGSETTYYNSALKSRFTISRDNAKNSLYLQMNSLRAEDTAVYYCAKHYYYGGSYAMDYWGQGTLVTVSS
VL: B1 VL
notes: Humanized heavy chain h2FMC63VH in pTSEG1n-S (human heavy constant); also called third version of a humanized antibody
B4: h2FMC63VH + L5F3 (antibody, V domains shown)
VH: B3 VH
VL: SYELTQPPSVSVAPGQTARITCGGNNLGDNSARWYQQKPGQAPVLVIYGNSNRPSGIPERFSGSNSGNTATLTISGTQAEDEADYYCQVTDTRSTSVVFGGGTKLTVL
notes: Humanized monoclonal antibody transiently expressed in HEK293 cells, with heavy chain from pTSEG1n-h2FMC63VH; also called L5F3 (humanized antibody)
B5: h2FMC63VH + L2D8 (antibody, V domains shown)
VH: B3 VH
VL: DIQMTQSPSSLSASVGDRVTITCRASQSVGSFLAWYQQKPGKAPKLLIYGASSRESGVPSRFSGSGSGTDFTLTISSLQPEDFATYYCQQTYHNPETFGQGTKVEIK
notes: Humanized monoclonal antibody transiently expressed in HEK293 cells, with heavy chain from pTSEG1n-h2FMC63VH; also called L2D8 (humanized antibody)
B6: h2FMC63VH + L2D12 (antibody, V domains shown)
VH: B3 VH
VL: SYELTQPPSVSVAPGQTARITCGGNDLRAQYVHWYQQKPGQAPVLVMYDDSKRPSGIPERFSGSNSGNTATLTISGTQAEDEADYYCQSWDRTSEPKVFGGGTKLTVL
notes: Humanized monoclonal antibody transiently expressed in HEK293 cells, with heavy chain from pTSEG1n-h2FMC63VH; also called L2D12 (humanized antibody)

target: T1, Human CD19 expressed on cell surfaces …; assay: flow cytometry on Raji cells
Protocol: Raji cell is a strain derived from human B lymphoma cell line. Raji cells were purchased from Chinese Academy of Medical Sciences, Institute of Basic Medical Cell Resource Center. The surface of Raji cells expresses antigen CD19, and the anti-CD19 antibody can be used to analyze the binding capacity of recombinant humanized monoclonal antibodies. By flow cytometry (IFA), binding abilities of the four recombinant humanized antibodies were analyzed.

Row | MFI (GeoMean) | Binder
1 | 67 | B1
2 | 186 | B2
3 | 330 | B3

target: T1, Human CD19 expressed on cell surfaces …; assay: flow cytometry on CD19-K562 cells

Row | MFI(Geo) | Binder
4 | 147 | B4
5 | 125 | B5
6 | 55.5 | B6

Source: US20200030424A1 (INNOVATIVE CELLULAR THERAPEUTICS, published 2020)
